Measurements taken from patent publication WO2008121160A2 (dated 2008).

Molecular target: T1, CD5-His-GST (human, UniProt P06127 25-372)
T1 construct: Expressed in 293T cells, purified by nickel chromatography; also called Recombinant CD5; Tagged CD5 antigen; not shown: C-terminal Factor Xa site; 6X His tag; GST protein
T1 sequence: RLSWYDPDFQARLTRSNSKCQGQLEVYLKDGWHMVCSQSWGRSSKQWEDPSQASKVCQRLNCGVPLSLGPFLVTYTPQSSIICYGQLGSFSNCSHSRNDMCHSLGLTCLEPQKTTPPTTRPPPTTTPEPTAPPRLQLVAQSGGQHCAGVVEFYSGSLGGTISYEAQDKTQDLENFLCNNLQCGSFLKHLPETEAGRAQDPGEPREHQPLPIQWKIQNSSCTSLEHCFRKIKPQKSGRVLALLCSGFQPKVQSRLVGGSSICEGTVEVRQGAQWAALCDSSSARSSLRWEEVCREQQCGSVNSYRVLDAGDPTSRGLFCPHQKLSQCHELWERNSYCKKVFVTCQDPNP
Test: Biacore (SPR), global Langmuir fits

B1: 5D7_H0L0_IgG1_WT (antibody, V domains shown)
VH: QVTLKESGPGILKPSQTLSLTCSFSGFSLSTSGMGVGWIRQPSGKGLEWLAHIWWDDDVYYNPSLKNQLTISKDASRDQVFLKITNLDTADTATYYCVRRRATGTGFDYWGQGTTLTVSS
VL: NIVMTQSHKFMSTSVGDRVSIACKASQDVGTAVAWYQQKPGQSPKLLIYWTSTRHTGVPDRFTGSGSGTDFTLTITNVQSEDLADYFCHQYNSYNTFGSGTRLELKR
notes: also called chimeric 5D7; H0L0 5D7
Kd: ~1.5 nM
